Measured values from article PMC7206793 (Science (New York, N.Y.), 2019).

T1: β-catenin (on the human protein microarray) (human, UniProt P35222 1-781)
T1 sequence (looked up): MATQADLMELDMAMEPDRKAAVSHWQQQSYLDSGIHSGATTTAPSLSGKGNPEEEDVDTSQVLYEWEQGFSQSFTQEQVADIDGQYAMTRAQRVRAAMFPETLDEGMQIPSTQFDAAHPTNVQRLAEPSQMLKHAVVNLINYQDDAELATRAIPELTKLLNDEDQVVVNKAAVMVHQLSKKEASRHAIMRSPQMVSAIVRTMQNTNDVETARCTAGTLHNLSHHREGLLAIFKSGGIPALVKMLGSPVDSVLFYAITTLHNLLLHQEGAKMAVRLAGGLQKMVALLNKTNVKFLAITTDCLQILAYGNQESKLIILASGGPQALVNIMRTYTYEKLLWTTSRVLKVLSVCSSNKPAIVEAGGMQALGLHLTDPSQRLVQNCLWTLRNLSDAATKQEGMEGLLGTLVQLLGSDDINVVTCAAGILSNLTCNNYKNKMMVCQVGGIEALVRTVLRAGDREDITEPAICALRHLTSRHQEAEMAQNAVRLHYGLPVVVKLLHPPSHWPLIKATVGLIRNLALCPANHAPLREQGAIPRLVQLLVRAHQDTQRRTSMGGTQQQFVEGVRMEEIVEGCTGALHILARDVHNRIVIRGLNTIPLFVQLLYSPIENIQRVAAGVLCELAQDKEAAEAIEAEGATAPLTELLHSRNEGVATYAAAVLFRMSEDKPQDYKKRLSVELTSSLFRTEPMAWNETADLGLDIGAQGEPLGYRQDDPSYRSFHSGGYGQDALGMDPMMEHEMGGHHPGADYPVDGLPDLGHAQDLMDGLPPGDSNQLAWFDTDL

B1: Flag (N-terminus)- and V5 (C-terminus)-tagged recombinant human Lmbr1l protein (natural protein, UniProt Q6UX01 1-489, looked up)
chain: MEAPDYEVLSVREQLFHERIRECIISTLLFATLYILCHIFLTRFKKPAEFTTVDDEDATVNKIALELCTFTLAIALGAVLLLPFSIISNEVLLSLPRNYYIQWLNGSLIHGLWNLVFLFSNLSLIFLMPFAYFFTESEGFAGSRKGVLGRVYETVVMLMLLTLLVLGMVWVASAIVDKNKANRESLYDFWEYYLPYLYSCISFLGVLLLLVCTPLGLARMFSVTGKLLVKPRLLEDLEEQLYCSAFEEAALTRRICNPTSCWLPLDMELLHRQVLALQTQRVLLEKRRKASAWQRNLGYPLAMLCLLVLTGLSVLIVAIHILELLIDEAAMPRGMQGTSLGQVSFSKLGSFGAVIQVVLIFYLMVSSVVGFYSSPLFRSLRPRWHDTAMTQIIGNCVCLLVLSSALPVFSRTLGLTRFDLLGDFGRFNWLGNFYIVFLYNAAFAGLTTLCLVKTFTAAVRAELIRAFGLDRLPLPVSGFPQASRKTQHQ

Assays:
[1] = target: B1; test: peptide or protein array
[2] = target: T1, β-catenin (on the human protein …); test: peptide or protein array

| binding result [1] | binding result [2] | Binder |
| --- | --- | --- |
| binds |  | casein kinase 1 ε (on the human protein microarray) (natural protein, UniProt P49674 1-416, looked up) MELRVGNKYRLGRKIGSGSFGDIYLGANIASGEEVAIKLECVKTKHPQLHIESKFYKMMQGGVGIPSIKWCGAEGDYNVMVMELLGPSLEDLFNFCSRKFSLKTVLLLADQMISRIEYIHSKNFIHRDVKPDNFLMGLGKKGNLVYIIDFGLAKKYRDARTHQHIPYRENKNLTGTARYASINTHLGIEQSRRDDLESLGYVLMYFNLGSLPWQGLKAATKRQKYERISEKKMSTPIEVLCKGYPSEFSTYLNFCRSLRFDDKPDYSYLRQLFRNLFHRQGFSYDYVFDWNMLKFGAARNPEDVDRERREHEREERMGQLRGSATRALPPGPPTGATANRLRSAAEPVASTPASRIQPAGNTSPRAISRVDRERKVSMRLHRGAPANVSSSDLTGRQEVSRIPASQTSVPFDHLGK |
|  | binds | B1 |
